In a protein production outcome set (Wang et al. 2014):

Assay: label from the status in PepcDB records

## MAKNQWNELLLEQVRQLPMASSKEHVQLRLNLLIVEASKQKKTIPTEFELIFQAYQLSRSGKLIDSISVFFDAINFSQQNQQEFLICFCHYNIGTLYGMLGNYFYAQKFLAKAEKMQQFCDGYITGIIKNNIGDIFRQIGNFNEALIYLTQAAELLSQHGPKTAAALSYFNIAEIKAKQFLFTEANELLENLYQDIKNEPRYLGFYYKIKAEIASHSGEFEQADKLHLLSIENMQISEHDYYYAEMILEYCHFLTSCLQYKKLDQFIALGLAVAKKIESDKLIDGFNDIILLRIKDIDDINIREKHYQTLTSSLLNSRRELLKREGDYLQQLYRLNVAKLNLSTMKSLSDNLAVINKVGHYINTSSDIKNALPQIQQDLASLFQTDTLALGFYNSEQDQITIHYLDNNLPAQTPYITDCKSEATYMSYCIKSNSAFYFNHMNSEQKVAMLGDRCDSKVQFKSAMFSPITINGEVKGVFTIQARESYQYQTFHFELFSQLISYISIALENQYNRQQLLHLSQTDHLTQIWNRKSLEAHFNQLKQQQNQEYTGIMIDIDHYKEYNDTYGHIAGDEVLIQVSRLIKQGFHSLETQVYRYGGDEFFVLIPSIKPEKIRQKLDKLLIEVKKLLIPHKASTCSCYLSISVGIGYNKDPENQLSLNSLVNTADRALYQAKENGRNCYFELAHIKETMY
  protein production: failed

## MRAARLIKMVLLLQSRPTMTAAELARELEVSERTVTRDAQALSEAGVPVYAERGRAGGYRLVGGYRTRLTGLARGEAEALFLSGVPGALREMGLEDAASAARLKVSAALLPSLRDASRTAAQRFHLDAPNWFREPETPELLPAVADAVWDDRRVAARYRRGTDEVVRELEPYGLVLKAGVWYLCARVAGTAGDGPFRVYRIDRFTAVEAGEERFVRDDGFDLPAFWAERAEQFARSILRAEVVVRLSERGVRGLPYAVDALSAREALEAAGAPDADGWVTVALPVESEEVAHAQLRGLGPEVEVLAPAALRERFAREARRLAELYGG
  protein production: failed

## MSTKSKIFLVLLVFCPLSFAAHWLGWGETTVFILAGLAIVPLAAFMGTATEEIAVVIGPNAGGLLNATFGNATELILAYIALKEGLIEVVKATLTGSIIGNLLLVMGFAVFLGGLRYKEQNFQPLAARLNASTMNLGVVAILLPTALQYTSTGVEETVLQNLSVAVAVVLIGVYLLSLVFSMGTHAYLYDVGVAENMEMPELGEDVSEPEPPTEEEKPNLWLWTGVLLVVTLGVAVESELLVGSLEVATESLGLTALFTGVIVLPIIGNAAEHATAVTVAMKDKMDLSMSVVMGSSLQIAFFVAPVLVIVGWAIGQPMDLNFNPFELVAVLVAVLIVNSISSDGTSNWLEGILLLATYAIVALAFFFHPTLV
  protein production: failed

## MNFEAIKSIYLFEMARTRRTLLQSVVSPVISTSLYFIVFGTAIGSRIQEVGGVSYGAFITPGLIMLTLLTQCISNGSFGIYFPKFTGTVYEILSAPVSMTEIVAGYVGAAATKGLMIGTIILITASFFVDITIAHPFMMVLFFVLTAVSFSLFGFIIGIWATNFEQLNLIPMLVVPPLTFLGGSFYSIDMLPPFWQTVSHFNPVLYLISGFRWSFYEIADVNPVISLAMITLFLAVCLGVVAWMFKTGYRLRN
  protein production: failed

## MTVTSPRIATILLLIVCFIWGVEFVPIDLAIEVMPTNTFNAIRFAVATLSMLPLLWFVQKKNKGNSKPIDYVLLIRSGMLLGFFLFIGFYTQTEGMRFTTVTNAGFITGLCVPLVPVLGFLIFRNVVPKSVWIGVVTATAGLYMLTIGDKLVFNKGDILVLICAFGFAGHIIMTDRFVDNLPIIPLSIVQIFAVSIYSTIAIFIGPDPVFYYQDAEPVSWYQQLFTPLMIFAILVSGILGTAYAFWAQSVSQTLLKPHKVALIFAAEPVFACIAAWVFLDEVLGEKGMIGAGLILAGMLVSELGDRKKQPELRALDQTAALK
  protein production: failed

## MKKGLTFSITSAALFFGMNHVASADQIHTVKEDAKLTDIAQTFATTTTEIQNLNHLQNRDYVQVGETIVLPDSDIVEVKDGDTIKAIAERHQMTMNQLYQLNPNLGEVIYPGQLVAVSEKGSAHLNNQLQQIFNSHEAVQPTAQINDDERNKAENNTIRNVRTSGNITPSATQTWQNNDYSASDRQQVSNTTANEQVTSNYQYSPVSHASNGSNYYDWGQCTYYAFDRRQQLGKSVGNLWGNANNWASAAQQSGYQVNNTPEVGAIFQSTAGNYGHVGVVESKNADGSIVVSEMNWQGVGQKSYRTIHNTGQYNYIHLEHHHHHH
  protein production: failed

## MTFGSLFRNQTRTVVKGHIFNLPNSLSILRILLIPWFIYYLDAGQTHIALIIMVVALLSDWFDGQMARWTNEVSDMGKILDPLADKLCLASVALYYLWKGELPVWFVVFVVFRDLVIFLGAAWIRHRHNVLTTSLWPGKWAVGFVSMMFISMVWPLPVFRQWPVKEFFMYLSAATLFYSFVEYCIRFYKIQKGAEFKA
  protein production: failed
